Each block holds one binder with its values, some of them ahead of it.
Experiments:
Test in all cases: flow cytometry, IgG on cells expressing the mutant
[1] = molecular target: human CD33 variant Y50P (human, UniProt P20138 18-364)
Procedure: (§1) An alanine scan on human CD33 was performed to the determine the residues on CD33 that are involved in binding to the antibodies investigated. […] Briefly, a mutation library of CD33 was created by high-throughput, site-directed mutagenesis. Each residue was individually mutated to alanine, with alanine codons mutated to serine. The mutant library was arrayed in 384-well microplates and transiently transfected into HEK293-T. Following transfection, cells were incubated with the indicated antibodies (IgG or Fab) at concentrations pre-determined using an independent immunofluorescence titration curve on wild type CD33. […] Binding of each antibody to each mutant clone was determined in duplicates. For each point, background fluorescence was subtracted from the raw data, which were then normalized to antibody reactivity with wild type CD33.
(§2) Antibodies were screened for binding to the human CD33 variants in IgG format. […] For each mutation, background fluorescence was subtracted from the raw data, which were then normalized to antibody reactivity with wild-type CD33.

[2] = molecular target: human CD33 variant K52T (human, UniProt P20138 18-364)
Procedure: as §1, §2

[3] = molecular target: human CD33 variant Y49H (human, UniProt P20138 18-364)
Procedure: as §1, §2

[4] = molecular target: human CD33 variant K52F (human, UniProt P20138 18-364)
Procedure: as §1, §2

[5] = molecular target: human CD33 variant I47P (human, UniProt P20138 18-364)
Sequence of human CD33 variant I47P (P20138 18-364 I47P limits assumed): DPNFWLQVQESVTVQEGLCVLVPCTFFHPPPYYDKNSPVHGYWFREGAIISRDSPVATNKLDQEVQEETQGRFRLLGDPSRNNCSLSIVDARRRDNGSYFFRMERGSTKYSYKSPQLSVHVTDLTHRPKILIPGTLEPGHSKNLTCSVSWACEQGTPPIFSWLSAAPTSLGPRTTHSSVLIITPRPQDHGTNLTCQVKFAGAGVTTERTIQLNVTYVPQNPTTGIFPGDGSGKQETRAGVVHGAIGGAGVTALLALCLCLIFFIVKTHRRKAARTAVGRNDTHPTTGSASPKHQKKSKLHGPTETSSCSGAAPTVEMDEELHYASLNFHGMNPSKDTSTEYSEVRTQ
Procedure: as §1, §2

[6] = molecular target: human CD33 variant Y50V (human, UniProt P20138 18-364)
Sequence of human CD33 variant Y50V (P20138 18-364 Y50V limits assumed): as the sequence (P20138 18-364 I47P limits assumed) above, with P30I, Y33V counted along it
Procedure: as §1, §2

[7] = molecular target: human CD33 variant P48M (human, UniProt P20138 18-364)
Sequence of human CD33 variant P48M (P20138 18-364 P48M limits assumed): as the sequence (P20138 18-364 I47P limits assumed) above, with P30I, P31M counted along it
Procedure: as §1, §2

[8] = molecular target: human CD33 variant R122S (human, UniProt P20138 18-364)
Sequence of human CD33 variant R122S (P20138 18-364 R122S limits assumed): as the sequence (P20138 18-364 I47P limits assumed) above, with P30I, R105S counted along it
Procedure: as §1, §2

[9] = molecular target: human CD33 variant Y49R (human, UniProt P20138 18-364)
Sequence of human CD33 variant Y49R (P20138 18-364 Y49R limits assumed): as the sequence (P20138 18-364 I47P limits assumed) above, with P30I, Y32R counted along it
Procedure: as §1, §2

[10] = molecular target: human CD33 variant P48Q (human, UniProt P20138 18-364)
Sequence of human CD33 variant P48Q (P20138 18-364 P48Q limits assumed): as the sequence (P20138 18-364 I47P limits assumed) above, with P30I, P31Q counted along it
Procedure: as §1, §2

[11] = molecular target: human CD33 variant P48S (human, UniProt P20138 18-364)
Sequence of human CD33 variant P48S (P20138 18-364 P48S limits assumed): as the sequence (P20138 18-364 I47P limits assumed) above, with P30I, P31S counted along it
Procedure: as §1, §2

[12] = molecular target: human CD33 variant Y49C (human, UniProt P20138 18-364)
Sequence of human CD33 variant Y49C (P20138 18-364 Y49C limits assumed): as the sequence (P20138 18-364 I47P limits assumed) above, with P30I, Y32C counted along it
Procedure: as §1, §2

[13] = molecular target: human CD33 variant M120L (human, UniProt P20138 18-364)
Sequence of human CD33 variant M120L (P20138 18-364 M120L limits assumed): as the sequence (P20138 18-364 I47P limits assumed) above, with P30I, M103L counted along it
Procedure: as §1, §2

[14] = molecular target: human CD33 variant P48V (human, UniProt P20138 18-364)
Sequence of human CD33 variant P48V (P20138 18-364 P48V limits assumed): as the sequence (P20138 18-364 I47P limits assumed) above, with P30I, P31V counted along it
Procedure: as §1, §2

[15] = molecular target: human CD33 variant R122T (human, UniProt P20138 18-364)
Sequence of human CD33 variant R122T (P20138 18-364 R122T limits assumed): as the sequence (P20138 18-364 I47P limits assumed) above, with P30I, R105T counted along it
Procedure: as §1, §2

[16] = molecular target: human CD33 variant K52H (human, UniProt P20138 18-364)
Sequence of human CD33 variant K52H (P20138 18-364 K52H limits assumed): as the sequence (P20138 18-364 I47P limits assumed) above, with P30I, K35H counted along it
Procedure: as §1, §2

[17] = molecular target: human CD33 variant Y49T (human, UniProt P20138 18-364)
Sequence of human CD33 variant Y49T (P20138 18-364 Y49T limits assumed): as the sequence (P20138 18-364 I47P limits assumed) above, with P30I, Y32T counted along it
Procedure: as §1, §2

[18] = molecular target: human CD33 variant Y50R (human, UniProt P20138 18-364)
Sequence of human CD33 variant Y50R (P20138 18-364 Y50R limits assumed): as the sequence (P20138 18-364 I47P limits assumed) above, with P30I, Y33R counted along it
Procedure: as §1, §2

[19] = molecular target: human CD33 variant I47W (human, UniProt P20138 18-364)
Sequence of human CD33 variant I47W (P20138 18-364 I47W limits assumed): as the sequence (P20138 18-364 I47P limits assumed) above, with P30W counted along it
Procedure: as §1, §2

[20] = molecular target: human CD33 variant M120I (human, UniProt P20138 18-364)
Sequence of human CD33 variant M120I (P20138 18-364 M120I limits assumed): as the sequence (P20138 18-364 I47P limits assumed) above, with P30I, M103I counted along it
Procedure: as §1, §2

[21] = molecular target: human CD33 variant Y50I (human, UniProt P20138 18-364)
Sequence of human CD33 variant Y50I (P20138 18-364 Y50I limits assumed): as the sequence (P20138 18-364 I47P limits assumed) above, with P30I, Y33I counted along it
Procedure: as §1, §2

[22] = molecular target: human CD33 variant D51N (human, UniProt P20138 18-364)
Sequence of human CD33 variant D51N (P20138 18-364 D51N limits assumed): as the sequence (P20138 18-364 I47P limits assumed) above, with P30I, D34N counted along it
Procedure: as §1, §2

[23] = molecular target: human CD33 variant Y49I (human, UniProt P20138 18-364)
Sequence of human CD33 variant Y49I (P20138 18-364 Y49I limits assumed): as the sequence (P20138 18-364 I47P limits assumed) above, with P30I, Y32I counted along it
Procedure: as §1, §2

[24] = molecular target: human CD33 variant Y49Q (human, UniProt P20138 18-364)
Sequence of human CD33 variant Y49Q (P20138 18-364 Y49Q limits assumed): as the sequence (P20138 18-364 I47P limits assumed) above, with P30I, Y32Q counted along it
Procedure: as §1, §2

[25] = molecular target: human CD33 variant K52D (human, UniProt P20138 18-364)
Sequence of human CD33 variant K52D (P20138 18-364 K52D limits assumed): as the sequence (P20138 18-364 I47P limits assumed) above, with P30I, K35D counted along it
Procedure: as §1, §2

[26] = molecular target: human CD33 variant Y50S (human, UniProt P20138 18-364)
Sequence of human CD33 variant Y50S (P20138 18-364 Y50S limits assumed): as the sequence (P20138 18-364 I47P limits assumed) above, with P30I, Y33S counted along it
Procedure: as §1, §2

[27] = molecular target: human CD33 variant I47N (human, UniProt P20138 18-364)
Sequence of human CD33 variant I47N (P20138 18-364 I47N limits assumed): as the sequence (P20138 18-364 I47P limits assumed) above, with P30N counted along it
Procedure: as §1, §2

Sequence of human CD33 variant K52F (P20138 18-364 K52F limits assumed): as the sequence (P20138 18-364 I47P limits assumed) above, with P30I, K35F counted along it
Sequence of human CD33 variant Y50P (P20138 18-364 Y50P limits assumed): as the sequence (P20138 18-364 I47P limits assumed) above, with P30I, Y33P counted along it
Sequence of human CD33 variant Y49H (P20138 18-364 Y49H limits assumed): as the sequence (P20138 18-364 I47P limits assumed) above, with P30I, Y32H counted along it
Sequence of human CD33 variant K52T (P20138 18-364 K52T limits assumed): as the sequence (P20138 18-364 I47P limits assumed) above, with P30I, K35T counted along it

Mean % WT Binding [1]: 103 % of WT
Mean % WT Binding [2]: 103 % of WT
Mean % WT Binding [3]: 92.1 % of WT
Mean % WT Binding [4]: 6 % of WT
Mean % WT Binding [5]: 2.8 % of WT
Mean % WT Binding [6]: 108 % of WT
Mean % WT Binding [7]: 106 % of WT
Mean % WT Binding [8]: 111 % of WT
Mean % WT Binding [9]: 79 % of WT
Mean % WT Binding [10]: 101 % of WT
Mean % WT Binding [11]: 100 % of WT
Mean % WT Binding [12]: 59.2 % of WT
Mean % WT Binding [13]: 90.8 % of WT
Mean % WT Binding [14]: 113 % of WT
Mean % WT Binding [15]: 103 % of WT
Mean % WT Binding [16]: 101 % of WT
Mean % WT Binding [17]: 96.5 % of WT
Mean % WT Binding [18]: 83 % of WT
Mean % WT Binding [19]: 112 % of WT
Mean % WT Binding [20]: 81.6 % of WT
Mean % WT Binding [21]: 92.8 % of WT
Mean % WT Binding [22]: 107 % of WT
Mean % WT Binding [23]: 109 % of WT
Mean % WT Binding [24]: 102 % of WT
Mean % WT Binding [25]: 101 % of WT
Mean % WT Binding [26]: 97.2 % of WT
Mean % WT Binding [27]: 91.6 % of WT
B1: Refmab #3 (antibody, human IgG1, V domains shown)
VH: QVQLVQSGAEVKKPGSSVKVSCKASGYTFTDYNMHWVRQAPGQGLEWIGYIYPYNGGTGYNQKFKSKATITADESTNTAYMELSSLRSEDTAVYYCARGRPAMDYWGQGTLVTVSS
VL: DIQMTQSPSSLSASVGDRVTITCRASESVDNYGISFMNWFQQKPGKAPKLLIYAASNQGSGVPSRFSGSGSGTDFTLTISSLQPDDFATYYCQQSKEVPWTFGQGTKVEIK
notes: Tested in IgG format; human IgG1 Fc silent (PG-LALA)

Mean % WT Binding [1]: 85.6 % of WT
Mean % WT Binding [2]: 83.5 % of WT
Mean % WT Binding [3]: 95.1 % of WT
Mean % WT Binding [4]: 3.5 % of WT
Mean % WT Binding [5]: 49 % of WT
Mean % WT Binding [6]: 1.7 % of WT
Mean % WT Binding [7]: 1.3 % of WT
Mean % WT Binding [8]: 90.2 % of WT
Mean % WT Binding [9]: 55.7 % of WT
Mean % WT Binding [10]: 2.1 % of WT
Mean % WT Binding [11]: 0.5 % of WT
Mean % WT Binding [12]: 0.5 % of WT
Mean % WT Binding [13]: 110 % of WT
Mean % WT Binding [14]: 88.5 % of WT
Mean % WT Binding [15]: 93.2 % of WT
Mean % WT Binding [16]: 75.1 % of WT
Mean % WT Binding [17]: 2.8 % of WT
Mean % WT Binding [18]: 0.3 % of WT
Mean % WT Binding [19]: 86.8 % of WT
Mean % WT Binding [20]: 101 % of WT
Mean % WT Binding [21]: 4.5 % of WT
Mean % WT Binding [22]: 76.4 % of WT
Mean % WT Binding [23]: 94 % of WT
Mean % WT Binding [24]: 91.9 % of WT
Mean % WT Binding [25]: 9.4 % of WT
Mean % WT Binding [26]: 2.9 % of WT
Mean % WT Binding [27]: 74.8 % of WT
B2: Refmab #4 (antibody, human IgG1, V domains shown)
VH: QVQLVQSGAEVKKPGESVKVSCKASGYTFTNYGMNWVKQAPGQGLEWMGWINTYTGEPTYADKFQGRVTMTTDTSTSTAYMEIRNLGGDDTAVYYCARWSWSDGYYVYFDYWGQGTSVTVSS
VL: DIVMTQSPDSLTVSLGERTTINCKSSQSVLDSSTNKNSLAWYQQKPGQPPKLLLSWASTRESGIPDRFSGSGSGTDFTLTIDSPQPEDSATYYCQQSAHFPITFGQGTRLEIK
notes: as for B1

From patent US20260242735A1 (UNIVERSIT T BASEL, published 2026)
